Values quoted from earlier work in US20220241413A1, “COMBINATION THERAPIES USING CD-38 ANTIBODIES” (Takeda Pharmaceutical Company Limited, priority 2019, published 2022).
Read-outs that look alike come from different tables or passages of the source.

Columns and labels:
[1] = cited from earlier work
RBCs and platelets = settings: cited from earlier work
[2] = cited from earlier work; remark: listed apart in the source
NK cells = settings: IV, patients with RRMM, doses up to 24 mg/kg; cited from earlier work
[3] = IV, patients with RRMM, doses up to 24 mg/kg; cited from earlier work
[4] = SC formulation with hyaluronidase

MOR202: anti-CD38 IgG1 antibody, used clinically via IV infusion
Grade ≥3 TEAE: hypertension ([1]; RRMM, IV infusion): 9%
Grade ≥3 TEAE: leukopenia ([1]; RRMM, IV infusion): 11%
Grade ≥3 TEAE: lymphopenia ([1]; RRMM, IV infusion): 18%
TEAE at any grade: anemia ([1]; RRMM, IV infusion): 34%
TEAE at any grade: fatigue ([1]; RRMM, IV infusion): 32%
TEAE at any grade: infusion-related reactions (IRRs) ([1]; RRMM, IV infusion): 30%
TEAE at any grade: leukopenia ([1]; RRMM, IV infusion): 30%
TEAE at any grade: lymphopenia ([1]; RRMM, IV infusion): 25%
TEAE at any grade: nausea ([1]; RRMM, IV infusion): 25%
patients with Grade ≥3 TEAEs ([1]; RRMM, IV infusion): 64%
infections ([1]; in vivo, iv): 59%

isatuximab: anti-CD38 IgG1 antibody
binding to RBCs and platelets (RBCs and platelets): strongly bind

daratumumab: first approved anti-CD38 drug, anti-CD38 IgG1 antibody
incidence of IRR, Grade 3 or higher ([2]; IV administration): ≤ 9%
incidence of IRR, all grades ([2]; IV administration): ≥ 50%
incidence of IRR, Grade 3 or higher [2, 4]: 8%
incidence of IRR, all grades [2, 4]: 16%
Grade 3 and 4 TEAE: hypertension ([2]; SC): 8%
Grade 3 and 4 TEAE: lymphopenia ([2]; SC): 20%
Grade 3 and 4 TEAE: neutropenia ([2]; SC): 8%
Grade 3 and 4 TEAE: thrombocytopenia ([2]; SC): 8%
injection site reactions (induration, erythema, discoloration, hematomas) ([2]; SC): 16.7 % of patients
persistence of positive indirect Coombs test results after the last infusion ([2]; binding to CD38 on RBCs): up to 6 months
patients with severe and serious IRRs, including anaphylactic reactions ([2]; human, in vivo): approximately half
comparable depletion of NK cells (to >90% with AB79) (NK cells): not achieved
binding to RBCs and platelets (RBCs and platelets): strongly bind
mean Cmax [3]: > 500 µg/mL
